# Laboratory results taken from publication PMC9270183 (The Journal of Experimental Medicine, 2022).
# Residue numbers refer to the chain shown, from its start.
# B1: V022 (antibody, V domains shown)
# VH: EVQLVESGGGLVKPGGSLRLSCAASGFTFSSYSMNWVRQAPGKGLEWVSSISSTNNYIYNADSVKGRFTISRDNAKNSLYLQMNSLRAEDTAVYYCARDPAGRYSYGLYYFYYMDVWGKGTTVTVSS
# VL: QSALTQPASVSGSPGQSITISCTGTSSDVGGYNYVSWYQQRPGKAPKLMIYDVSNRPSGVSDRFSGSKSGNTASLTISGLQAEDEADYYCTSYTSSSSLYVFGTGTKVTVL
# notes: IgG; donor BRA13; source: recombinant monoclonal IgG, produced and purified as previously described
# B2: V019 (antibody, V domains shown)
# VH: QVQLVQSGAEVKKPGSSVKVSCKASGGTFSTYTFSWVRQAPGQGLEWMGRIIPILGIANYAQKFQGRITITADKSTSTAYMELSSLRSEDTAVYYCAWGSYSYGYFVDIWGQGTMVTVSS
# VL: DIVMTQTLLSLSVTPGQPASISCKSSQSLLHSDGKTYLYWYLQKPGQSPQLLIYEVSSRFSGVPDRFSGSGSGTDFTLKISRVEAEDVGVYYCMQGIQFHWTFGQGTKLEIK
# notes: as for B1
# B3: V027 (antibody, V domains shown)
# VH: not shown
# VL: NFMLTQPHSVSESPGKTVTISCTRSSGSIASNYVQWYQQRPGSAPTTVIYEDNQRPSGVPDRFSGSIDSSSNSASLTISGLKTEDEADYYCQSYDSSNHRVFGGGTKLTVL
# notes: IgG; donor BRA14; source: recombinant monoclonal IgG, produced and purified as previously described
# B4: V017 (antibody, V domains shown)
# VH: EVQLVESGGGLVQPGGSLRLSCVASGFTFSTYSMNWVRQAPGKGLEWVSYISSSSSTIYYADSVKGRFTISRDNAKSSLYLQMNSLRAEDTAVYYCASGLCGGDCPLTCWGQGTLVTVSS
# VL: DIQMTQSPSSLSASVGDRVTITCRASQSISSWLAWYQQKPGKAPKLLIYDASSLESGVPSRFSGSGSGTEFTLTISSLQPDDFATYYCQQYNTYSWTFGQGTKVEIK
# notes: as for B1
# B5: V021 (antibody, V domains shown)
# VH: QVQLQESGPGLVKPSQTLSLTCTVSGGSISSGSYYWSWIRQPVGKGLEWIGRIYTSGSTNYNPSLKSRVTISVDTSKNQFSLELSSVTAADRAVYYCARESSPASIPVRGVIWWFDPWGQGTLVTVSS
# VL: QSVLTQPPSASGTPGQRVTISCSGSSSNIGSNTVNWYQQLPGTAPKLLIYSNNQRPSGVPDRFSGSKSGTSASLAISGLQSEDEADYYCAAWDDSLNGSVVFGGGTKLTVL
# notes: IgG; donor BRA13
# B6: V002 (antibody, V domains shown)
# VH: EVQLVESGGGLVQPGRSLRLSCAASGFTFDEYAMHWVRQAPGKGLEWVSGSSWNSGTIGYADSVKGRFTISRDNAKNSLYLQMNSLRAEDTALYYCAKSQGDYGGNSGAGYFQHWGQGTLVTVSS
# VL: SYELTQPPSVSVAPGKTARITCGGNNIGSKSVHWYQQKPGQAPMLVVYDDSDRPSGIPERFSGSNSGNTATLTISRVEAGDEADYYCQVWDSSSEVYVFGTGTKVTVL
# notes: as for B1
# B7: V028 (antibody, V domains shown)
# VH: QVQLVESGGGVVQPGRSLRLSCAASGFTFSSYGMHWVRQAPGKGLEWVAVVSFDGSDKYYADSVKGRFTISRDNSKNTLYLQMNSLRAEDTALYYCAKGGYSYAYPRYYFDYWGQGTLVTVSS
# VL: DIQMTQSPSSLSASVGDRVTITCQASQDISNYLNWYQQKPGKAPKLLIYDASNLETGVPSRFSGSGSGTDFTFTISSLQPEDIATYYCQQHDNLPITFGQGTRLEIK
# notes: as for B3
# B8: V031 (antibody, V domains shown)
# VH: B7 VH with V51I, F53Y, D57N, T69A, I70F, L93V
# VL: B7 VL
# notes: as for B3
# B9: V020 (antibody, V domains shown)
# VH: QVQLVESGGGVVQPGRSLRLSCAASGFTFSSYGMHWVRQAPGKGLEWVAVISYDGSNKYYADSVKGRFTISRDNSKNTLYLQMNSLRAEDTAVYYCAKGGWFGELLRYFDYWGQGTLVTVSS
# VL: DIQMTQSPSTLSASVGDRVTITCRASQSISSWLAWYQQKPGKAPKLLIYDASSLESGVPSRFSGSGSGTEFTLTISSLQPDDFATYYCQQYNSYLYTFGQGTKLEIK
# notes: as for B1
# B10: V026 (antibody, V domains shown)
# VH: B9 VH with A24V, D54E, F102Y, E104S, L105P, L106T, R107Y
# VL: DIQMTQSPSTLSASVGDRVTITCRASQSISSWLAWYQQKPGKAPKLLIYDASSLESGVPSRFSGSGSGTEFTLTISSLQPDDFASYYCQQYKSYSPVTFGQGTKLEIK
# notes: as for B1
# B11: V025 (antibody, V domains shown)
# VH: QVQLVQSGAEVKKPGASVKVSCKASGYTFTSYGISWVRQAPGQGLEWMGWISVYNGKTNYAQKLQGRVTMTTDTSTSTAYMELRSLISDDTAVYYCARADRYNWDYGSSWGQGTLVTVSS
# VL: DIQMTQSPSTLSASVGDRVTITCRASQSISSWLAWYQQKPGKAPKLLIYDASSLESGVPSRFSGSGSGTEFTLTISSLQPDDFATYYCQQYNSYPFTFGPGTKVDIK
# notes: as for B1
# B12: V024 (antibody, V domains shown)
# VH: QVQLVESGGGVVQPGRSLRLSCAASGFTFSSYGMHWVRQAPGKGLEWVAVISYDGSNKYYADSVKGRFTISRDNSKNTLYLQMNSLRGEDTAVYYCAKAGYGYSYGYGQIDYWGQGTLVTVSS
# VL: not shown
# notes: IgG; donor BRA13
# Biological target: T1, 417N/484K/501Y RBD mutant (SARS-CoV-2, Wuhan-Hu-1 RBD backbone …, 417N | 484K | 501Y)
# T1 construct: also called RBD KEN
# Experiment: BLI
# Settings: both partners purified
row,Binder,Kd [nM]
1,B1,5.71
2,B2,3.31
3,B3,37.3
4,B4,27.1
5,B5,32.6
6,B6,979
7,B7,44.6
8,B8,14.5
9,B9,94.8
10,B10,11.9
11,B11,2.84
12,B12,33.2
